The values that follow come from patent publication US7238711.

Experiment [1] addresses chemokine receptors on THP-1 cells. Nature of the experiment: biotinylated peptide on THP-1 cells, streptavidin-peroxidase, Scatchard; with and without 100 µM unlabeled peptide 3 (printed as affinity constant).
The target in experiment [2] is chemokine receptors on the surface of Jurkat cells. Nature of the experiment: biotinylated peptide at 100 µM on 10^6 Jurkat cells, streptavidin-peroxidase, TMB.
The target in experiment [3] is chemokine receptors on THP-1 cells. The experiment in a line: biotinylated peptide at 100 µM on 4×10^5 THP-1 cells, streptavidin-peroxidase, TMB.
A further experiment deals with CXCR4 (human) (UniProt P61073). Nature of the experiment: cell-based or functional assay.
In experiment [4] the target is chemokine receptors on the surface of Jurkat cells. The experiment in a line: biotinylated peptide on cells, streptavidin-peroxidase.

Bounds are passed on as bounds.

Chain of CXCR4 (human) (P61073 whole entry): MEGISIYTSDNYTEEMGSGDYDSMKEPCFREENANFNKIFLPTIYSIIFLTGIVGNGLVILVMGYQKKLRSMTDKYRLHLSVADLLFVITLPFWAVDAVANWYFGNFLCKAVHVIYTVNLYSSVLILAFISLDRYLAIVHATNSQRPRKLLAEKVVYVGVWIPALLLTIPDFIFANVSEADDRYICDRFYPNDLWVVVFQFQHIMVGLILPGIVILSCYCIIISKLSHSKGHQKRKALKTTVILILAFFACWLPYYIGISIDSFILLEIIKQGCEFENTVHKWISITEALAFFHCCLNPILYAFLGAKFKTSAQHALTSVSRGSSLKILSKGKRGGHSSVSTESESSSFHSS

As usually defined, the Kd is the concentration at which binding is half-saturated. Low readings indicate a tighter complex, high ones a looser complex. As for “N-terminal biotin-labeled peptide 2(1-15)[MCP-1]”, the Kd in experiment [1] worked out at 0.25 µM.

With gp120:V3(BaL) (peptide), in experiment [2], the ΔA450 nm, alone was 0.167 ΔA450 nm and the ΔA450 nm, specific binding was < 0 ΔA450 nm. Moreover, in experiment [3], the ΔA450 nm, alone is 0.642 ΔA450 nm and the ΔA450 nm, specific binding was 0.535 ΔA450 nm.

Turning to KLK (peptide), in the experiment with CXCR4 (human), the percentage inhibition of SDF1α induced THP-1 migration at 100 µM came out at 87%.

In turn, gp120:V3(IIIb) (peptide) returned a fold specific binding against THP-1 cells in experiment [4] of 5 fold. Further, the ΔA450 nm, alone in experiment [2] is 0.878 ΔA450 nm; in experiment [3], 0.268 ΔA450 nm. Besides, the values for the ΔA450 nm, specific binding in experiment [2] and in experiment [3] were 0.689 ΔA450 nm and 0.137 ΔA450 nm, respectively.
